{
  "source": "paper PMC12592476",
  "key": {"[1]": {"target": "bovine brain Arp2/3 complex (bovine) (UniProt P61157)", "assay": "ITC; Coro7 CA in the syringe, ATP-bound Arp2/3 complex in the 1.44 mL cell; 25 °C; 20 mM HEPES pH 7.5, 100 mM KCl, 1 mM MgCl2, 1 mM EGTA, 1 mM DTT, 0.2 mM ATP"}, "[2]": {"target": "bovine brain Arp2/3 complex (bovine) (UniProt P61157)", "assay": "ITC; Coro7 CA in the syringe, ADP-bound Arp2/3 complex in the 1.44 mL cell; 25 °C; 20 mM HEPES pH 7.5, 100 mM KCl, 1 mM MgCl2, 1 mM EGTA, 1 mM DTT, 0.2 mM ADP"}},
  "data": [
    {"substance": "human Coro7 CA (C-terminal Central-Acidic region of coronin 7) (from UniProt P57737-1 888-925) (domain or fragment)", "values": [
      {"measurement": "Kd", "setting": "[1]", "result": 1, "unit": "µM"},
      {"measurement": "stoichiometry N", "setting": "[1]", "result": 1},
      {"measurement": "Kd", "setting": "[2]", "result": 1, "unit": "µM"},
      {"measurement": "stoichiometry N", "setting": "[2]", "result": 1}
    ]}
  ]
}
